Results: patent publication US11180770B2, “HPPD variants and methods of use” (BASF Agricultural Solutions Seed US LLC, priority 2017, dated 2021)
Changes are numbered by the printed parent chain.

B1: SEQ ID NO:1 (protein, listed as Pseudomonas fluorescens)
chain: MADLYENPMGLMGFEFIEFASPTPGTLEPIFEIMGFTKVATHRSKNVHLYRQGEINLILNNEPNSIASYFAAEHGPSVCGMAFRVKDSQKAYNRALELGAQPIHIDTGPMELNLPAIKGIGGAPLYLIDRFGEGSSIYDIDFVYLEGVERNPVGAGLKVIDHLTHNVYRGRMVYWANFYEKLFNFREARYFDIKGEYTGLTSKAMSAPDGMIRIPLNEESSKGAGQIEEFLMQFNGEGIQHVAFLTDDLVKTWDALKKIGMRFMTAPPDTYYEMLEGRLPDHGEPVDQLQARGILLDGSSVEGDKRLLLQIFSETLMGPVFFEFIQRKGDDGFGEGNFKALFESIERDQVRRGVLTAD
modifications: 4-hydroxyphenylpyruvate dioxygenase (HPPD; Pseudomonas fluorescens) (1)..(358)
B2: SEQ ID NO: 68: mutant PfHPPD: 268A 270S 315Q 335P 336H 337S 340V 344Q 345M (protein)
chain: B1 chain with P268A, T270S, T315Q, E335P, G336H, N337S, A340V, S344Q, I345M
modifications: mutant HPPD polypeptide
notes: mutant PfHPPD: 268A 270S 315Q 335P 336H 337S 340V 344Q 345M
B3: SEQ ID NO: 69: mutant PfHPPD: 268A 270S 315R 335P 336H 337S 340V 344Q 345M (protein)
chain: B1 chain with P268A, T270S, T315R, E335P, G336H, N337S, A340V, S344Q, I345M
modifications: mutant HPPD polypeptide
notes: mutant PfHPPD: 268A 270S 315R 335P 336H 337S 340V 344Q 345M
B4: SEQ ID NO: 70: mutant PfHPPD: 213K 268A 270S 315Q 335P 336H 337S 340V 344Q 345M (protein)
chain: B1 chain with R213K, P268A, T270S, T315Q, E335P, G336H, N337S, A340V, S344Q, I345M
modifications: mutant HPPD polypeptide
notes: mutant PfHPPD: 213K 268A 270S 315Q 335P 336H 337S 340V 344Q 345M

Legend:
soybean shoots = assay: selection of soybean shoots with tembotrione (greening/bleaching); assay type: in vivo; details: wild-type soybean shoots treated with tembotrione as selection marker
Text: Soybean transformation was achieved by using methods well known in the art, such as the one described using the Agrobacterium tumefaciens mediated transformation soybean half-seed explants using essentially the method described by Paz et al. (2006), Plant cell Rep. 25:206. Transformants were identified by using the HPPD inhibitor herbicide “tembotrione” as selection marker. The appearance of green shoots was observed, and documented as an indicator of tolerance to the HPPD inhibitor herbicide tembotrione.

HPPD polypeptides [1] = assay: coupled HPPD activity assay: turnover and residual turnover in crude extracts; assay type: biochemical, Pseudomonas fluorescens; details: FIG. 2
HPPD polypeptides [2] = assay: as above; assay type: biochemical, Pseudomonas fluorescens; details: for turnover / residual turnover in the presence of Cmpd. 1 compared with a reference HPPD polypeptide, in words: comparison with the reference or parent polypeptide
T0 soybean plants = assay: greenhouse spray test, leaf area damage score; assay type: in vivo; details: transgenic soybean T0 events, five days after Cmpd. 1 at 300 g AI/ha; for leaf area damage score, 25th percentile: scale 0 (no damage) to 100 (complete bleaching); for leaf area damage score, 75th percentile / leaf area damage score, 90th percentile / leaf area damage score, Median: scale 0-100
Text: Tolerant green shoots were transferred to rooting media or grafted. Rooted plantlets were transferred to the greenhouse after an acclimation period. Plants containing the transgene were then sprayed with HPPD inhibitor herbicides, as for example with mesotrione at a rate of 300-600 g AI/ha, or with Cmpd. 1 (2-chloro-3-(methylsulfanyl)-N-(1-methyl-1H-tetrazol-5-yl)-4-(trifluoromethyl)-benzamide) at a rate of 150 g-300 g AI/ha supplemented with ammonium sulfate and methyl ester rapeseed oil. Five to ten days after the application, the symptoms due to the application of the herbicide were evaluated and compared to the symptoms observed on wild-type plants under the same conditions. For example, T0 soybean plants having a “plant expression cassette”, which includes an HPPD inhibitor tolerant HPPD polypeptide of the present invention, were tested towards the tolerance of Cmpd. 1. Prior greenhouse trials with the transgenic plants, soybean transformants were routinely analyzed for the expression and presence of the transgenes using the ELISA protein detection method (see detailed description under item D and H). Only plants recovering in the selection media and having a detectable HPPD transgene protein expression were used for the herbicide tolerance analysis. A DeVries Tracker Sprayer was calibrated prior to each spraying. The chemical formulation used for Cmpd. 1 was supplemented with ammonium sulfate and methylated rape seed oil. Spray tests were conducted with a concentration, which equals to 300 grams AI per hectare (300 g AI/ha).
In greenhouse trials, independent T0 soybean events containing an exemplary mutant HPPD polypeptide were sprayed with the HPPD inhibitor herbicide Cmpd. 1 (2-chloro-3-(methylsulfanyl)-N-(1-methyl-1H-tetrazol-5-yl)-4-(trifluoromethyl)benzamide) at the rate of 300 grams AI/ha, supplemented with ammonium sulfate and methyl ester rapeseed oil. Five days after the application, the leaf damaged area due to the HPPD inhibitor herbicide is scored in a scale from 0 (no damage) to 100 (complete bleaching). Under those conditions, the wild-type plants were completely bleached and their damage scores were in the 95-100 range.
Table 5 presents the distribution of the HPPD inhibitor herbicide damage score data as percentile for exemplary mutant HPPD inhibitor herbicide tolerant polypeptides (SEQ ID NOs). The percentiles normalize ranks of the damage score from an individual plant in a population. […] The median is the 50th percentile. Half the values had higher damage scores; half had lower damage scores. The value of the 75th and 90th percentile is the damage score where 75% and 90% of the soybean events had lower damage scores, respectively. The difference between the 75th and 25th percentile is called the interquartile range and a marker to quantify scattering in the population. All constructs had only one single cassette insertion in the soybean genome.

Molecule	effect on wild-type soybean shoots (soybean shoots)	mode of inhibition by HPPD inhibitor herbicides (time-course of inhibition) (HPPD polypeptides [1])	Residual turnover (HPPD polypeptides [2]; presence of 100 μM Cmpd. 1, high substrate concentration, changes in absorbance (OD) at 320 nm)	leaf area damage score, 25th percentile (T0 soybean plants)	leaf area damage score, 75th percentile (T0 soybean plants)	leaf area damage score, 90th percentile (T0 soybean plants)	leaf area damage score, Median (T0 soybean plants)	turnover / residual turnover in the presence of Cmpd. 1 compared with a reference HPPD polypeptide, in words (HPPD polypeptides [2])
CS(=O)(=O)c1ccc(C(=O)C2C(=O)CCCC2=O)c(Cl)c1COCC(F)(F)F [tembotrione, 2-[2-chloro-4-(methylsulfonyl)-3-[(2,2,2,-trifluoroethoxy)methyl]benzoyl]-1,3-cyclohexanedione]	entirely bleached	–	–	–	–	–	–	–
B1	–	slow and tight binding inhibitor	0.021	–	–	–	–	–
B2	–	–	–	5.0	16.3	20.0	10.0	increase significantly the turnover and the residual turnover
B3	–	–	–	20.0	25.0	42.0	20.0	increase significantly the turnover and the residual turnover
B4	–	–	–	10.0	25.0	35.0	15.0	increase significantly the turnover and the residual turnover
